Test: soluble on expression in E. coli; label from the status in PepcDB or PDB records

Sequence | soluble on expression in E. coli
MLGMYVPDRFALKSSRVQDGMGLYTARRVRKGEKFGPFAGEKRMPEDLDENMDYRLMWEVRGSKGEVLYILDATNPRHSNWLRFVHEAPSQERKNLAAIQEGENIFYLAVDDIETDTELLIGYLDSDVEAEEEEQQALTMTKEGKVDHSKGQLAAGSKGHLGCEEDFACPQCESSFPSEEVLTEHLQSLHQKPTGEKEFKCENCGKKFPVRQALQRHFEQHRKACRGEARFVCKADSCGKRLKSKDALRRHQENVHTGDPKRKLICSVCNRKCTSVSSLQEHRKIHEIFDCQECMKKFISANQLKRHMITHSEKRPYNCEICNKSFKRLDQVGAHKVIHSEDKPYQCKLCGKGFAHRNVYKNHKKTHSEERPFQCDACKALFRTPFSLQRHLLIHNSERTFKCHHCDATFKRKDTLNVHVQVVHERHKKYRCELCNKAFVTPSVLRSHKKTHTGEKEKVCPYCGQKFASSGTLRVHIRSHTGERPYQCPYCEKGFSKNDGLKMHIRTHTREKPYQCSECSKAFSQKRGLDATKRTHTGEKPFQCDVCDLAFSLKKMLIRHKMTHNPNRPMAECHFCHKKFTRNDYLKVHMDNIHGVADS | soluble
MARTEIWLRLMYVGDLYGEAMLNMANSLIRQPQINRTHLQEAGLTARQAERFLQLPAGVLDETLRWLELPQHHFLCADSEIYPPQLRAIDDYPGAIFIDGDPACLHTCQLAVVGSRSHSWYGERWGRLLCESLAKSGLTITSGLARGIDGVAHNAAVSMGGKSVAVLGNGLAKIYPRRHAMLAENLIATGGAVVSEFPLSTPPLPQHFPRRNRIISGLSKGVLVIEAALRSGSLVTARCALEQGRDVFALPGPIGSPGSEGTHWLIKQGATLVTTPEDILENLQYGLHWLPTTAENSLYSLNQDEAALPFPELLANVGDEVTPVDVVAERAGQPVPAVVAQLLELELAGWIAAVPGGYVRLRRASHVRRTNVFV | not soluble
MAHHHHHHMEQQGDSEAKEHGELTRNGITDNAYDNSVGAFNRTILDRYAHWMTQLDQGACGLRIWKAEELWKRYERVIRVGRGSFGSVFIVYDTERKAYLTVKCMELLGKPGPALRSLSQPTLREVILLSQIDHPNVVRLIDYYLTSDGMLHMCMPIVSHDLVSLIRIWKMRGPRGESSLGRMPLPTVKCVFRQLLRGLEYLHRRNIIHRDLKPSNVMLDDNGVVKIVDFGWARFVPRRWQGRLTGPPCVVTYRPPEILLGGQCSFKYDSSIDIWSAGCILYEMLTGGKAFSNARNEQQALAAITDMLGSPSSRSEVYYGAAGGSRLRPSKRQPRNFEERCRMVNMSNESIDFLGEMLQLEPNSRKSASQLLGHSWFSTSPLPCEPEEVSLPGSNTYRLLERKRTR | not soluble
SSSLTSENAETKVGVFWDVEECPVPDGVEPSVVCENIKLALEKKGYRPCNVSIRVYGERTNKFKDDFLLADIMFLPAGDEGARFMRMCNDFFCWGNDNRKSTLMVMSRDSTEFASSFVMYKNLNFNILVAQPENVDRKCPVCRKPLEMIITDEWVWESLSAGGDPLPKTQEEPDLSNSCH | soluble
MGSDKIHHHHHHMNERLRQGLVAAEGPLSGEVIKDVECVAGGCIHQAWCLQLKGGRQLFAKTGGADALPMLKVEVEGLKALKAWVDPGVLEVPEPLAFDQVCGEAVLLLPWLDFRAGNQASLGRGLALLHRASAAENPGRFGWPVDGFIGAGSQPGGWREQWGDAFVTLRLRPQLREAARWGLDLVDVEPILAALIPWLDRHQPSPSLVHGDLWSGNANVLSDGRGVLLDPATWWADREVDLAMTQLFGGFSQDFYIGYENVWPLPADASQRVEVYNLYHLINHANLFGGSYRNQSQAILNRLASWLLT | not soluble
MGSDKIHHHHHHTGIWQWSVPVHNFSTHPKNPESRAYLWIPGQCEQVKAILVAQHNMEEISILEDEAFRQRMAELDVAQIWVCPSFNHGFDFTDGAWETLDGLLADLAEESGYKELSTAPLIAIGHSAAASWPYYLAAYKPERTLACISVSGQWPYHRDRWLCPDIWGERNINKIPCLETMGEYESAHTWSNEGLKERKEHPLLPLSMLACPAEGHFAYTPEKAQYIALYIKKAMHYGHVDPTKEGWLMERWKKNEKPSCIPAPVNQFKGDPAQAFWFFDREMIEATLAYQSRYYDMKPQLVSVSQNGKTVSQQNTHLQVHPAFIPQEDGITFQLTPVFLDTVPGESPRLSNWTDLPVGASIGHAGKAPVLQMITGPVVLVDSVTFRIQWNRGTLWTDKKSDIVFSITHPGDEEYKPAVQQAQMIIPVKNTEGQQQYIKFATLPDIKRGTKYVSLSAVSSCGLPVDFYVESGPAYVDGNRLILTAIPPKTTYPVKVTVIAWQYGKNSDPKIKTAEPVKQTFYIR | not soluble
MKWYTKYLQVYEKPFSEAPQEIVEEVRNKLKLLQSDNPLVTVSLIGYNEEKHLLASLWSLSEMKCKYPIEIIGTDNDSKDQTATIYEATGIPYVIEHQHSCGHARLCGLKRAKGKYHINIDSDTMYPPHYVETMVDALERPGIVAVSSLWSYIPDKEHSWVGLKIYEFIRDIHLWIQSIKRPELSVRGLVFAYRTDYARQVGIRTDIRRGEDGSLALRLKEYGNIYFIRKRKARAITGYGTISADGSLFNSFKVRAIYALKNIGRVFTRKKEYKDEDDNLIKSLEHHHHHH | soluble
VINARLGKKDEINVCKLKISAWDEEEAVCIMSISEERMFILKMLEEGKITSEEAARLLEAIDPDKGTADSGSGFKAQQRKTNFADEVSKVRDKLNEWKKEFKKNYNQKDFERAVDEFSSKVEKLGKNLAYTTIGVADKLVDFISSFVETNSFNVFGKYKATNRVFEVPDVNEDMELNIEAINGHILVKKHMENKVIIRTTVKSPADNADEILDFSREENKVTLKCNKIGNISVSHEIFLPSVKVKNISLVTKNGKVYVEDSISENFEAVTSNSNVDLMGVNGDKINVSNKNGRINFGYIIGKDINIDAVNSVIEIRQIKTTNINASTRNGRIFIENVHNHNDDPNINMNLKTSSADIKVNMNDMEKRGYKIKAQTTHAEINLLIPEMTYRNISKQMSSNFVEADSDGYDDYINKVNIVAETTNGNIEIVK | not soluble
MGSDKIHHHHHHMSKRQFGLIYISSYQARLFIVDLKKLAIIEQLSSVQFVQGGKKFEVYENELPRLTDALIGFKRKIAEYGIDNYKVYGNRQLLDKISARYLADQIKVRTGLEIEWLNGAQIAYYKIIAGMALPQFSELADDEFTYLLSMGSAMLNLTLFKGQHYLSTWNFALGPEEIEEMAAMTRDTPSDPIDIIGDYISRKLVSFKTIEKPTGKARIIIQHVFGRGEQSLRPQEKARVIDLKQFAGVYSDFREAPDQYLMEKYELDTDSLARMKPTIVLINQLVKIIKPHMMTLTQSSAITGLMIQEAARLKYRPDEYSTIVLTATKNIARRYESGGQHINLSNKFALHIFDRLAHAGMVDRRDRQLLEIAARLHDIGNFINFHNHYEHAAYIVGANQIIGLSDRENEMLLSILKHQDITNLNADEREYRHLDPALQVRVAKLAAILRLANSLDASRKQKISKIVVSIKDEKMLIVVTSKRDLTLERWVFEKNVNLAEAVFGMKIAMKQKRGK | not soluble
MGSDKIHHHHHHMREAMYWKPLGDGRVRCELCPLRCIIDEGKRGSCKIRINKGGKLYTLNYGKVSSIALDPIEKKPLFHFWPGSCALSIGTVGCNMHCKHCQNWEISQADESFPYLQDATPEAIVSLAKHYECESIAYTYNEPTIWYEFVLDTAKLARKEGLNNILVTNGYINEEPFRELAPYIDAMNIDIKAFDDKFYMKIASVPSGEPSRRIAEIAKKEFKIHVELTYLIIPTLNDKEEEIREFARWVVENLGDDTPVHFSRFFPHYKLLNLPPTPIETLEKAYKIAKEEGLKFVYLGNVPGHPGENTYCPSCGKLLIERWGFDIIRYDIVDGKCKYCGEKIPIVGKYQKKKYRGMWW | not soluble
MAYTEEQIENIKTRILTALEEVIDPELGIDIVNLGLIYEIRFDGDTGQTEIDMTLTTMGCPLADLLTDQIYDAMIEVPEVTDTEVKLVWYPAWTVEKMSRYARIALGIK | not soluble
MSLSNDRYSMSFTTGSLFHRESVKLAALYLDLGDWNSVRDKVIAENLLQTRTLNTLKRVCREIISRLRTMNPGELDFLVEGSHQEQAYLLWLAVCRRYRFIADFAVEVLRERYITLKADLTHEDFDSFFNRKSEWHLELDEITPATRSKLRQVLFKILREADLLAANNMINAAMLSPRLSDVIHRGSRRDVSYFPLFESDLKGMAKEGHHHHHH | soluble
MENREPPLLPARWSSAYVSYWSPMLPDDQLTSGYCWFDYERDICRIDGLFNPWSERDTGYRLWMSEVGNAASGRTWKQKVAYGRERTALGEQLCERPLDDETGPFAELFLPRDVLRRLGARHIGRRVVLGREADGWRYQRPGKGPSTLYLDAASGTPLRMVTGDEASRASLRDFPNVSEAEIPDAVFAAKRLEHHHHHH | soluble
VQLVRLLEEKIKSLQIEIENLRKELNYYKAEMEKMLSPPLIEAVVLDVLPDGRVLVRSSSGPNLVVNIASHIDQKLIKPGISVALNQRGSTILEVLPQKEDPIVKTMEIIERPN | not soluble
MATDQKRGLLIVFEGLDRSGKSTQAKRLVESINKKSTESGDASSSPSAVLQAFPDRSSSIGKLIDQYLRKEIDMDEHALHLLFSADRFSKNQMIRDNIAKGIDVICDRYCYSGVAYSLAKGLPEQWVRSSDVGLPKPDAVLFFDVSPEVAAQRGGFGEERLETATIQQKVAAVMPTLRDDAYWKTVNADGDLDSVEKNVFRIYENLDREKPFESLEKI | not soluble
MSLAWAPKNYIEKVVAIYDYTKDKDDELSFKEGAIIYVIKKNDDGWFEGVCNRVTGLFPGNYVESIMHYTDEGHHHHHH | soluble
MGLCMMRTLQSAPSSPLAMPEIQFCLLPDACRPLLGKFYREHQSSMRAASKGQAWVAKQEEIIGALCLTPVADGHWLTGLFVAPPLRGNAVAQRLIDAALLPLSGPVWLFCHPDLQGFYRLAGFETAQRLPQALGERLMRYSRSKPLVALHREA | not soluble
TQKSLSNFLLSMQEAFSLGEEDRLLAVTTVAFDISALELYLPLISGAQIVIAKKETIREPQALAQMIENFDINIMQATPTLWHALVTSEPEKLRGLRVLVGGEALPSGLLQELQDLHCSVTNLYGPTETTIWSAAAFLEEGLKGVPPIGKP | not soluble
MAHHHHHHMPTYVGKEAPFFKAEAVFGDNSFGEVNLTQFIGKKYVLLYFYPLDFTFVCPSEIIALDKALDAFHERNVELLGCSVDSKYTHLAWKKTPLAKGGIGNIKHTLLSDITKSISKDYNVLFDDSVSLRAFVLIDMNGIVQHLLVNNLAIGRSVDEILRIIDAIQHHEKYGDVCPANWQKGKVSMKPSEEGVAQYLSTL | not soluble
GPGSMGIPLPKPVMTQLQERYGNTIFRCGSNCVNGYRETMEDAHLTYLTDSWGFFGVFDGHVNDQCSQYLERAWRSAIEKESIPMTDERMKELALQIDQEWMDSGREGGSTGTFFVALKEGNKVHLQVGNVGDSRVVACIDGVCVPLTEDHKPNNEGERQRIENCAGRVENNRVDGSLAVSRAFGDREYKLGSGSQLEQKVIALADVQHKDLTFNSNDFVLLCCDGVFEGNFPNEEVVAYVKQQLETCNDLAEVAGSVCEEAIERGSRDNISCMIVQFKDGSDYAAAPHTTVVPGPFSAPRNSGFRKAYESMADKGNTTVGALLEKRYDTLKAAEALTPEETEELSQFENGPEAKLTGAERQKWFSNYFQKLCEAASNGPSDQMERLQSLQQQAGIPLSILLSLMGEQTQ | soluble

Reference: the DeepSol protein solubility set
